From patent publication US6699837

Assays:
[1] = target: HGF receptor (c-met) on human cell lines of the central nervous system (T98G glioblastoma, GOTO and SCCH-26 neuroblastoma) (human) (UniProt P08581); experiment: ^125I-HGF saturation binding on GOTO cells, Scatchard analysis
[2] = target: HGF receptor (c-met) on human cell lines of the central nervous system (T98G glioblastoma, GOTO and SCCH-26 neuroblastoma) (human) (UniProt P08581); experiment: ^125I-HGF saturation binding on T98G cells, Scatchard analysis
[3] = target: HGF receptor (c-met) on human cell lines of the central nervous system (T98G glioblastoma, GOTO and SCCH-26 neuroblastoma) (human) (UniProt P08581); experiment: ^125I-HGF saturation binding on SCCH-26 cells, Scatchard analysis
[4] = target: HGF receptor (c-met) on human cell lines of the central nervous system (T98G glioblastoma, GOTO and SCCH-26 neuroblastoma) (human) (UniProt P08581); experiment: ^125I-HGF binding on T98G, GOTO and SCCH-26 cells, Scatchard analysis (range told of the three cell lines)

Sequence of Human recombinant HGF (hepatocyte growth factor), radioiodinated (^125I-HGF) (P14210 32-728 limits assumed): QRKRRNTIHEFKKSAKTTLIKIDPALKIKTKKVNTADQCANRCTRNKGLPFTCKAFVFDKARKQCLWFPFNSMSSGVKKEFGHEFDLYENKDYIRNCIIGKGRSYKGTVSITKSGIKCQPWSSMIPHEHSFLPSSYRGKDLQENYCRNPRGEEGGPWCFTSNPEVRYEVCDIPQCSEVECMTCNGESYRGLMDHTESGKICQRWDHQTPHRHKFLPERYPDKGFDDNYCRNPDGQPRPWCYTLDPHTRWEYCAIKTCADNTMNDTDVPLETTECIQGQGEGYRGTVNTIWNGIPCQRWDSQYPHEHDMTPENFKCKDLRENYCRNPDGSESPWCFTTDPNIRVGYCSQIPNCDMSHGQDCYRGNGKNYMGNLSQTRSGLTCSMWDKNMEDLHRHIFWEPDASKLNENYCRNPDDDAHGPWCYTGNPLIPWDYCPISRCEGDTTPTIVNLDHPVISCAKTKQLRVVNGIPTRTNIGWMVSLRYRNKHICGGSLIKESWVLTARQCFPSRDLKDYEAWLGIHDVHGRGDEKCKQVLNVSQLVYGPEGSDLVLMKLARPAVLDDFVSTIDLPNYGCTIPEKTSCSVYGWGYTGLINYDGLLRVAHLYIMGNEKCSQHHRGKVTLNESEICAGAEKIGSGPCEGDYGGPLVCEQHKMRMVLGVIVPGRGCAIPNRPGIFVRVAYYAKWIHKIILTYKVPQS

Human recombinant HGF (hepatocyte growth factor), radioiodinated (^125I-HGF) (from UniProt P14210 32-728) (ligand)
B max (sites/cell) [1]: 120 sites/cell | Kd [1]: 0.03 nM | B max (sites/cell) [2]: 540 sites/cell | Kd [2]: 0.031 nM | B max (sites/cell) [3]: 60 sites/cell | Kd [3]: 0.02 nM | Kd [4]: 0.03 to 0.04 nM
